B1: PGT121-K149 fusion protein (Fab)
chain 1: QMQLQESGPGLVKPSETLSLTCSVSGASISDSYWSWIRRSPGKGLEWIGYVHKSGDTNYSPSLKSRVNLSLDTSKNQVSLSLVAATAADSGKYYCARTLHGRRIYGSENLYFQGSCPDGFSYRSWDDFCCPMVGRCLAPRNGSENLYFQGSEWFTYFYMDVWGNGTQVTVSS
chain 2: QSVLTQPPDISVAPGETARISCGEKSLGSRAVQWYQHRAGQAPSLIIYNNQDRPSGIPERFSGSPDSPFGTTATLTITSVEAGDEADYYCHIWDSRVPTKWVFGGGTTLTVL
B2: PGT121-K136 fusion protein (Fab)
chain 1: QMQLQESGPGLVKPSETLSLTCSVSGASISDSYWSWIRRSPGKGLEWIGYVHKSGDTNYSPSLKSRVNLSLDTSKNQVSLSLVAATAADSGKYYCARTLHGRRIYGSENLYFQGTCPDNYREVDGCDPYDCCLTTWCTNSYCTRYIENLYFQGSEWFTYFYMDVWGNGTQVTVSS
chain 2: B1 chain 2

Target: Complement component C5 (human, UniProt P01031)
Sequence (P01031 19-673, chain 1 of 2): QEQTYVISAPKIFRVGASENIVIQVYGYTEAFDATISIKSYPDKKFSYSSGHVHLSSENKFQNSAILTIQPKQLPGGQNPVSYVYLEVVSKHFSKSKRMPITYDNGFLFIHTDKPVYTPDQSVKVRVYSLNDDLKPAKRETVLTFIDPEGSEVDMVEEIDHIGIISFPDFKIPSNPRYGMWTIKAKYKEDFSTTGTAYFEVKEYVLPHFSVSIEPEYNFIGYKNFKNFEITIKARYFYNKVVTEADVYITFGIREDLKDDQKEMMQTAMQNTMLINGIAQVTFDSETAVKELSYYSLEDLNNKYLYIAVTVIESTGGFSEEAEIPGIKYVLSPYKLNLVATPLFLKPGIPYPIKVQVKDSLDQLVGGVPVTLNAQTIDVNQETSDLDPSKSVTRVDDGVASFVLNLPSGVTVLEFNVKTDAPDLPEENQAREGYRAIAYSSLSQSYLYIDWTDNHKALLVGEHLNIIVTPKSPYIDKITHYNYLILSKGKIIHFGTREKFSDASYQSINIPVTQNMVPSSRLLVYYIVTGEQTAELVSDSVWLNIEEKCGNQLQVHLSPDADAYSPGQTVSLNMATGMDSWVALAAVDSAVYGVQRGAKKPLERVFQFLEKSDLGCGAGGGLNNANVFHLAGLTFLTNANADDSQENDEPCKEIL
Sequence (P01031 678-1676, chain 2 of 2): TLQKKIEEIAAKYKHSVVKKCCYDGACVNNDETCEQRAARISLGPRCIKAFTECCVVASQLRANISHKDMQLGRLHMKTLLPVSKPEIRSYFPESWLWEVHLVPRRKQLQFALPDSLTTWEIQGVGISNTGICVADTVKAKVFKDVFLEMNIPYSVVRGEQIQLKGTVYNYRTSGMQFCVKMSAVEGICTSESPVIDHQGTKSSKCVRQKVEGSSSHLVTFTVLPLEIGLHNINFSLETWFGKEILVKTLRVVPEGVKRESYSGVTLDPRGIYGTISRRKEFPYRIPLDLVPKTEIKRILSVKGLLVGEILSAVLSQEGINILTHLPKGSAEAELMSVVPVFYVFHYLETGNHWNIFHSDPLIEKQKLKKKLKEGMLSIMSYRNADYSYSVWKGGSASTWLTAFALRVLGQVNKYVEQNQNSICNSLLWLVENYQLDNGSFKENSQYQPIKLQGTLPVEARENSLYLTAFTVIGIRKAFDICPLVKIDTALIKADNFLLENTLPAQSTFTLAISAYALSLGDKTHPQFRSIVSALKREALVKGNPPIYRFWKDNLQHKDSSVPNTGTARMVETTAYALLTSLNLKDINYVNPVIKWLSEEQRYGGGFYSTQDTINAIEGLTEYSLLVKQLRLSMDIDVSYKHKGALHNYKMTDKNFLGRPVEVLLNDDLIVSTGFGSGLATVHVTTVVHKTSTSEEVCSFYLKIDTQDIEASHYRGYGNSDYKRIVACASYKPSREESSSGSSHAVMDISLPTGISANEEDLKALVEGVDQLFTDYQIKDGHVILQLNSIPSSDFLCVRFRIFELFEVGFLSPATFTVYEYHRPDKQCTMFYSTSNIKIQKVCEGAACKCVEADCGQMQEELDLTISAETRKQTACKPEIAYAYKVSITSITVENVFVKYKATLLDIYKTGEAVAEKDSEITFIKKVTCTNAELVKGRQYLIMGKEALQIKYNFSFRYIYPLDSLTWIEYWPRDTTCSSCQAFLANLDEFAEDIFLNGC
Assay: SPR

Binder	Kd [nM]
B1	517
B2	< 2.2
